How the values were obtained:
[1] = target: extended construct of the non-phosphorylated Smad2 MH2 domain (S2LMH2); assay: SAXS with ensemble optimization method
[2] = target: full-length phosphomimetic Smad2 (S2FLEEE) (UniProt Q15796); assay: SAXS with ensemble optimization method

Chain of extended construct of the non-phosphorylated Smad2 MH2 domain (S2LMH2) (domain or fragment) (Q15796 269-467): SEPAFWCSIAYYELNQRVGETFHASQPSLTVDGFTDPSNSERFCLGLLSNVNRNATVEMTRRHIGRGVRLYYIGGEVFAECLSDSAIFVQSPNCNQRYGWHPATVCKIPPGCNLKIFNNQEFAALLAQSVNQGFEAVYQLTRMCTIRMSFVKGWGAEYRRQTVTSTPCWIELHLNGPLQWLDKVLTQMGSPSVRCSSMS
Chain of full-length phosphomimetic Smad2 (S2FLEEE) (from UniProt Q15796 1-467) (natural protein) (Q15796 whole entry): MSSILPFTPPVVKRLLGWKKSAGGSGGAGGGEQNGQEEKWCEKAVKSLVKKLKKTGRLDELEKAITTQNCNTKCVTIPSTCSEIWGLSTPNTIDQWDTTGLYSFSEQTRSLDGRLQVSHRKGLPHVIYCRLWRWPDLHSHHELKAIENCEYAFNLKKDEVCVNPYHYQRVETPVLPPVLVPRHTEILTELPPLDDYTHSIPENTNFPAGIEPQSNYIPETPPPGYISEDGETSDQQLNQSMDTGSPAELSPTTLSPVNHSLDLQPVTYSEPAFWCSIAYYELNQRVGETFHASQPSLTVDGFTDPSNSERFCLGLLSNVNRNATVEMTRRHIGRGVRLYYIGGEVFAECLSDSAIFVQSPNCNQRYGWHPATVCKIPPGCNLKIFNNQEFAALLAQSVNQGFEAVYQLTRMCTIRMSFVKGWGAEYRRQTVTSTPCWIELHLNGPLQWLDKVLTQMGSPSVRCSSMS

Row | percent of the total population as trimer at 15 and 30 μM [1] | stoichiometry N [1] | percent of the population as dimer at all concentrations analyzed [2] | percent of the population as trimer at 28.1 μM [2] | Substance
1 | 50% | 3 | – | – | extended construct of the non-phosphorylated Smad2 MH2 domain (S2LMH2) (domain or fragment)
2 | – | – | 36% | 44.8% | full-length phosphomimetic Smad2 (S2FLEEE) (from UniProt Q15796 1-467) (natural protein)

From paper doi:10.1101/2021.04.13.439655
